Results from patent publication US10966923.

Experiments:
[1] = target: AB160 (nanoparticle of albumin-bound paclitaxel and bevacizumab, ratio about 10:4, average particle size 160 nm) (UniProt P02768); experiment: flow cytometry of particles stained with goat anti-mouse IgG and PE
[2] = target: Abraxane (albumin-bound paclitaxel) (UniProt P02768); experiment: flow cytometry of particles stained with goat anti-mouse IgG and PE; ABX alone as comparison
VEGF = VEGF (UniProt P15692); experiment: VEGF incubated with particles, particulate spun out, free VEGF in the supernatant measured by ELISA
[3] = target: T1, Abraxane (albumin-bound paclitaxel) (UniProt P02768 25-609); experiment: as above
T1 construct: also called ABX; Paclitaxel Albumin-stabilized Nanoparticle Formulation
Description: The VEGF was incubated with the nanoparticles for 2 hours at room temperature. The suspension was spun at 6000 rpm for 15 minutes, supernatants were collected and free VEGF was measured by ELISA. Briefly, ELISA plates were coated with capture antibody overnight at 4° C. Plates were washed, blocked and standards and samples were added. After washing, detection antibody was added and plates were developed with substrate (R and D Systems, Minneapolis, Minn.). […] The concentration of unbound VEGF was determined with a standard curve from 0 to 2000 pg/ml.

Molecule: goat anti-mouse IgG (antibody)
- % positive [1]: 41.2%
- % positive [2]: 6.7%

Molecule: AB160 (nanoparticle of albumin-bound paclitaxel and bevacizumab, ratio about 10:4, average particle size 160 nm) (from UniProt P02768 25-609)
- % VEGF unbound (VEGF): < 10%

B1: VEGF (ligand, UniProt P15692-4 27-191, looked up)
chain: APMAEGGGQNHHEVVKFMDVYQRSYCHPIETLVDIFQEYPDEIEYIFKPSCVPLMRCGGCCNDEGLECVPTEESNITMQIMRIKPHQGQHIGEMSFLQHNKCECRPKKDRARQENPCGPCSERRKHLFVQDPQTCKCSCKNTDSRCKARQLELNERTCRCDKPRR
notes: Soluble VEGF
- binding result [3]: no binding (tested: 2000 pg/ml VEGF)
